Reference: patent US20190322729A1

Columns and labels:
[1] = system: T1, H1.0K180me2 peptide AKPVKASKPKKAKPVK(me2)PK
T1 sequence: AKPVKASKPKKAKPVKPK

[2] = system: T2, unmodified H1.0 peptide AKPVKASKPKKAKPVKPK
T2 sequence: AKPVKASKPKKAKPVKPK

| Substance | in vitro methylation, LC-MS: further methylated product H1.0K166me1K180me2 [1] | in vitro methylation, LC-MS: further methylated product H1.0K174me1K180me3 [1] | in vitro methylation, LC-MS: further methylated product H1.0K174me3K175me3K177me1K180me2 [1] | in vitro methylation, LC-MS: share of peptides further methylated [1] | in vitro methylation with tritium-labeled methyl donor, autoradiography [2] | in vitro methylation, LC-MS spectral counts: share of peptides dimethylated at K180 [2] |
| --- | --- | --- | --- | --- | --- | --- |
| G9A methyltransferase (recombinant, NEB M0235S) | 1.27% of the total peptide in the reaction | 1.06% of the total peptide in the reaction | 0.35% of the total peptide in the reaction | only 2.64% of peptides are further methylated | The appearance of a band at 4 kDa shows that The G9A methyltransferase capable of methylating H1.0 peptide | 99.9% of all peptides |
| GLP methyltransferase (recombinant, Cayman Chemical 10755) | – | – | – | 1.02% of peptides are further methylated | – | 96.6% of all peptides |
